According to ChEMBL document CHEMBL5634078, “Catechol-mimicking transition-state analogues as non-oxidizable inhibitors of tyrosinases” (Eur J Med Chem, 2023):

Assays:
Mushroom tyrosinase [1] = target: T1, Mushroom tyrosinase (Agaricus bisporus, UniProt O42713+Q00024+C7FF04+C7FF05); assay: Inhibition of mushroom Tyrosinase using L-DOPA as substrate assessed as inhibition constant by Michaelis-Menten analysis; assay type: protein assay
[2] = Binding affinity to Mushroom Tyrosinase assessed as inhibition constant
Mushroom tyrosinase [3] = target: T1, Mushroom tyrosinase; assay: Binding affinity to mushroom Tyrosinase using L-DOPA as substrate assessed as inhibition constant by Michaelis-Menten analysis; assay type: protein assay
Mushroom tyrosinase [4] = target: T1, Mushroom tyrosinase; assay: Inhibition of mushroom Tyrosinase; assay type: protein assay
Mushroom tyrosinase [5] = target: T1, Mushroom tyrosinase; assay: Inhibition of mushroom Tyrosinase by using L-DOPA as substrate by spectrophotometric assay; assay type: protein assay
CC(C)(C)c1ccc(O)c(O)c1 [6] = assay: (§1) Binding affinity to mushroom tyrosinase assessed as catalytic constant; assay type: protein assay; conditions: Agaricus bisporus
[7] = test system: CC(C)NCC(O)c1ccc(O)c(O)c1; assay: as §1; assay type: protein assay; conditions: Agaricus bisporus
Cc1ccc(O)c(O)c1 [8] = assay: as §1; assay type: protein assay; conditions: Agaricus bisporus
NCCc1ccc(O)c(O)c1 [9] = assay: as §1; assay type: protein assay; conditions: Agaricus bisporus
[10] = test system: N[C@@H](Cc1ccc(O)c(O)c1)C(=O)O; assay: as §1; assay type: protein assay; conditions: Agaricus bisporus
[11] = test system: N[C@@H](Cc1ccc(O)cc1)C(=O)O; assay: as §1; assay type: protein assay; conditions: Agaricus bisporus
[12] = test system: N[C@H](Cc1ccc(O)c(O)c1)C(=O)O; assay: as §1; assay type: protein assay; conditions: Agaricus bisporus
[13] = test system: O=C(/C=C/c1ccc(O)c(O)c1)O[C@H](Cc1ccc(O)c(O)c1)C(=O)O; assay: as §1; assay type: protein assay; conditions: Agaricus bisporus
[14] = test system: O=C(O)/C=C/c1ccc(O)c(O)c1; assay: as §1; assay type: protein assay; conditions: Agaricus bisporus
O=C(O)Cc1ccc(O)c(O)c1 = assay: as §1; assay type: protein assay; conditions: Agaricus bisporus
[15] = test system: O=c1c(O)c(-c2ccc(O)c(O)c2)oc2cc(O)cc(O)c12; assay: as §1; assay type: protein assay; conditions: Agaricus bisporus
Oc1ccccc1O [16] = assay: as §1; assay type: protein assay; conditions: Agaricus bisporus
CC(C)(C)c1ccc(O)c(O)c1 [17] = assay: (§2) Binding affinity to mushroom tyrosinase […]; assay type: protein assay; conditions: Agaricus bisporus
[18] = test system: CC(C)NCC(O)c1ccc(O)c(O)c1; assay: as §2; assay type: protein assay; conditions: Agaricus bisporus
COc1ccc(O)cc1 [19] = assay: as §2; assay type: protein assay; conditions: Agaricus bisporus
Cc1ccc(O)c(O)c1 [20] = assay: as §2; assay type: protein assay; conditions: Agaricus bisporus
NCCc1ccc(O)c(O)c1 [21] = assay: as §2; assay type: protein assay; conditions: Agaricus bisporus
NCCc1ccc(O)cc1 [22] = assay: as §2; assay type: protein assay; conditions: Agaricus bisporus
[23] = test system: N[C@@H](Cc1ccc(O)c(O)c1)C(=O)O; assay: as §2; assay type: protein assay; conditions: Agaricus bisporus
[24] = test system: N[C@@H](Cc1ccc(O)cc1)C(=O)O; assay: as §2; assay type: protein assay; conditions: Agaricus bisporus
[25] = test system: N[C@H](Cc1ccc(O)cc1)C(=O)O; assay: as §2; assay type: protein assay; conditions: Agaricus bisporus
O=C(O)Cc1ccc(O)cc1 [26] = assay: as §2; assay type: protein assay; conditions: Agaricus bisporus
[27] = test system: O=c1c(O)c(-c2ccc(O)c(O)c2)oc2cc(O)cc(O)c12; assay: as §2; assay type: protein assay; conditions: Agaricus bisporus
[28] = test system: OC[C@H]1O[C@@H](Oc2ccc(O)cc2)[C@H](O)[C@@H](O)[C@@H]1O; assay: as §2; assay type: protein assay; conditions: Agaricus bisporus
Oc1ccc(OC2CCCCO2)cc1 [29] = assay: as §2; assay type: protein assay; conditions: Agaricus bisporus
Oc1ccccc1O [30] = assay: as §2; assay type: protein assay; conditions: Agaricus bisporus
Oc1ccccc1 [31] = assay: as §2; assay type: protein assay; conditions: Agaricus bisporus
COc1ccc(O)cc1 [32] = assay: (§3) Binding affinity to mushroom tyrosinase assessed as catalytic constant by Michaelis-Menten analysis; assay type: protein assay; conditions: Agaricus bisporus
NCCc1ccc(O)cc1 [33] = assay: as §3; assay type: protein assay; conditions: Agaricus bisporus
[34] = test system: N[C@H](Cc1ccc(O)cc1)C(=O)O; assay: as §3; assay type: protein assay; conditions: Agaricus bisporus
O=C(O)Cc1ccc(O)cc1 [35] = assay: as §3; assay type: protein assay; conditions: Agaricus bisporus
Oc1ccccc1 [36] = assay: as §3; assay type: protein assay; conditions: Agaricus bisporus
[37] = test system: O=C1/C(=C/c2ccc(O)cc2)Oc2cc(O)ccc21; assay: (§4) Binding affinity to mushroom tyrosinase assessed as catalytic constant using L-DOPA as substrate by Michaelis-Menten analysis; assay type: protein assay; conditions: Agaricus bisporus
[38] = test system: OC[C@H]1O[C@@H](Oc2ccc(O)cc2)[C@H](O)[C@@H](O)[C@@H]1O; assay: as §4; assay type: protein assay; conditions: Agaricus bisporus
[39] = test system: Oc1ccc(/C=C/c2cc(O)cc(O)c2)cc1; assay: as §4; assay type: protein assay; conditions: Agaricus bisporus
Oc1ccc(OC2CCCCO2)cc1 [40] = assay: as §4; assay type: protein assay; conditions: Agaricus bisporus
Tyrosinase = target: T2, Tyrosinase (Homo sapiens, UniProt P14679); assay: Binding affinity to human Tyrosinase using L-DOPA as substrate assessed as inhibition constant by Michaelis-Menten analysis
T2 sequence (P14679 whole entry): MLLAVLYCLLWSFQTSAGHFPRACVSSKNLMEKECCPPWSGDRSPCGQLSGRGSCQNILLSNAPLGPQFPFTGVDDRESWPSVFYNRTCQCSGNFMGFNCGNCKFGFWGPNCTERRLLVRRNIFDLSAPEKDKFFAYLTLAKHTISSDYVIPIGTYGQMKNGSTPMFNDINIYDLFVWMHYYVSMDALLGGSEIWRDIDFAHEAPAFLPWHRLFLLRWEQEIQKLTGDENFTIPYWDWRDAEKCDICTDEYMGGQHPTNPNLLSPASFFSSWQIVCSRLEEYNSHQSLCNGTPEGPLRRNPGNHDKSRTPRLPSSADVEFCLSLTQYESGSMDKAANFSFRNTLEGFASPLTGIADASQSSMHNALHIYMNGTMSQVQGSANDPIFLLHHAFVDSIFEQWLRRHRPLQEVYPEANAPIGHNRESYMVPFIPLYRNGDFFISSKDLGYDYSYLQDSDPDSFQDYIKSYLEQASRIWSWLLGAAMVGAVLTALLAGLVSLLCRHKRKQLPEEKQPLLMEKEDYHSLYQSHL

[41] = Biniding affinity to bacterial Tyrosinase assessed as inhibition constant; parameters: species or system Bacteria

Mushroom tyrosinase (Agaricus bisporus), sequence (C7FF05 whole entry, looked up): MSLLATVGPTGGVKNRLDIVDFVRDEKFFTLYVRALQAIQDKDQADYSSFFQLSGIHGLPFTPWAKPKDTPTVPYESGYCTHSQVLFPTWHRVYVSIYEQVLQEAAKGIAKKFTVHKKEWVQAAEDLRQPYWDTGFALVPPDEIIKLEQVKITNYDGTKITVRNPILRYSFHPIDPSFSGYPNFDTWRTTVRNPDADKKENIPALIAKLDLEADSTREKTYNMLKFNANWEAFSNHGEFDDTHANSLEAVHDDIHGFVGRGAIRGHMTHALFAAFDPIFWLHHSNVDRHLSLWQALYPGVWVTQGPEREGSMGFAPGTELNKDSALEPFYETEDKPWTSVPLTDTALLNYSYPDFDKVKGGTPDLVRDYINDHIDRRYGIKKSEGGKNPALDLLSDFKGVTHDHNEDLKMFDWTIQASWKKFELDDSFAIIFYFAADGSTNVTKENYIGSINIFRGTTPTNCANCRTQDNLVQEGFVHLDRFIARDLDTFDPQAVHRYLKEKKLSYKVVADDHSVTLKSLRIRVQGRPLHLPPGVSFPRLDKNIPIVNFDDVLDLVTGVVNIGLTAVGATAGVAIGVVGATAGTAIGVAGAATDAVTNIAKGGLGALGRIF
Mushroom tyrosinase (Agaricus bisporus), sequence (C7FF04 whole entry, looked up): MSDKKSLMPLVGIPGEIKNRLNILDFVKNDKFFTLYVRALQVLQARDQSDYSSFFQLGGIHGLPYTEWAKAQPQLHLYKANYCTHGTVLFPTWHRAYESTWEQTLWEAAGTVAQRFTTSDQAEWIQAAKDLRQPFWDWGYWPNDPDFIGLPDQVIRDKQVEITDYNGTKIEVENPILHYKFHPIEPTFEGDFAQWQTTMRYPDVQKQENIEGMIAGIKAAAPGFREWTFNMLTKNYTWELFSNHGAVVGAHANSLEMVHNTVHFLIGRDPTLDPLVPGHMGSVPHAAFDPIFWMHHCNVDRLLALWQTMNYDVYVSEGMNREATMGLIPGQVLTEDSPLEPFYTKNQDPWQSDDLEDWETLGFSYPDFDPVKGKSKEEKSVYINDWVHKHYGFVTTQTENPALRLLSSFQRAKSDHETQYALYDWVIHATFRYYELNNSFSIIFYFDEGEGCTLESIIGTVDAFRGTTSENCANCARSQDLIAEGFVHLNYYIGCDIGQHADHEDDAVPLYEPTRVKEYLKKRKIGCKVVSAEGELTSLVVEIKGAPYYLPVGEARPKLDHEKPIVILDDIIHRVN
Mushroom tyrosinase (Agaricus bisporus), sequence (Q00024 whole entry, looked up): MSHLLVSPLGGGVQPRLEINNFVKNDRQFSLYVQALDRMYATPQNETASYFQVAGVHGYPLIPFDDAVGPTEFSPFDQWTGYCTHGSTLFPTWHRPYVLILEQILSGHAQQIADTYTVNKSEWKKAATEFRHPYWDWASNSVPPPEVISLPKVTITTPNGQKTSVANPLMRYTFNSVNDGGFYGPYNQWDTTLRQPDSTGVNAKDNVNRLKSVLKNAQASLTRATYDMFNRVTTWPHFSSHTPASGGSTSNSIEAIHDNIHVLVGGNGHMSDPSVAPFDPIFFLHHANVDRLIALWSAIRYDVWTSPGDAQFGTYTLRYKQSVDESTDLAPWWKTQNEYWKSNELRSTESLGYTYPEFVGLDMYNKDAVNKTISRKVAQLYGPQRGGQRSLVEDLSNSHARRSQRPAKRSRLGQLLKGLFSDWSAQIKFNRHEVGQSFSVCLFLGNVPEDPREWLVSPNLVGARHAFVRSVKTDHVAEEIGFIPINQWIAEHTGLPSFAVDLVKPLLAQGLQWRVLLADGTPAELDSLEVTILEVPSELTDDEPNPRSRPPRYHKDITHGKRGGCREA
Mushroom tyrosinase (Agaricus bisporus), sequence (O42713 whole entry, looked up): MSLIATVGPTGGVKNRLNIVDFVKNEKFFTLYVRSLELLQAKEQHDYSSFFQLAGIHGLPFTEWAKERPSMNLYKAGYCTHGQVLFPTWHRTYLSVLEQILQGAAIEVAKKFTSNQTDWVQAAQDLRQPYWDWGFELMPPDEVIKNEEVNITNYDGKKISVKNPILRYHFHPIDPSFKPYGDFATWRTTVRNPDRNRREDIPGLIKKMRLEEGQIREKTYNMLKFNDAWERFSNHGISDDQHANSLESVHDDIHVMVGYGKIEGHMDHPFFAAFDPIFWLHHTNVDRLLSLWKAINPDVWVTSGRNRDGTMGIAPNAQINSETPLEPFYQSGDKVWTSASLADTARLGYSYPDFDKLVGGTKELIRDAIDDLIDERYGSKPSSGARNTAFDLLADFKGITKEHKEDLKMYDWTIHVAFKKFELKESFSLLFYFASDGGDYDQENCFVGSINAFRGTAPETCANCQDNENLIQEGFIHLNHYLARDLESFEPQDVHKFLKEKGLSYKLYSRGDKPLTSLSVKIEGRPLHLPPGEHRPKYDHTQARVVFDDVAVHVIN

Work on `Nc1cc2ccc(O)cc2oc1=O` yielded an IC50 (Mushroom tyrosinase [1]) of 53 µM.

Work on `CCn1ccc(=O)c(O)c1` yielded a Ki [2] of 4 µM.

With `Oc1cccnc1O` the Ki (Mushroom tyrosinase [3]) was 22 µM.

`On1ccccc1=S` gave an IC50 (Mushroom tyrosinase [1]) of 6.1 µM.

`O=C1/C(=C/c2ccc(=O)n(O)c2)Oc2cc(O)ccc21` gave an IC50 (Mushroom tyrosinase [1]) of 1.5 µM and a Ki (Mushroom tyrosinase [3]) of 0.35 µM.

`CC(C)c1cccc(=O)c(O)c1` [HINOKITIOL] showed a Ki (Mushroom tyrosinase [3]) of 0.09 µM.

`CCCCCCCCn1cc(O)c(=O)cc1/C=N/OCC` showed an IC50 (Mushroom tyrosinase [4]) of 8 µM.

With `CCCCCCn1cc(O)c(=O)cc1/C=C/c1cc(O)cc(O)c1` the IC50 (Mushroom tyrosinase [4]) was 16 µM.

With `O=c1cccccc1O` [TROPOLONE] the Ki (Mushroom tyrosinase [3]) was 8 µM.

`O=c1cc(CSc2nc3ccccc3c(=O)n2CCc2ccccn2)occ1O` showed an IC50 (Mushroom tyrosinase [5]) of 0.46 µM.

Work on `CC(C)[C@@H](NC(=O)[C@@H](N)Cn1ccc(=O)c(O)c1)C(=O)O` yielded an IC50 (Mushroom tyrosinase [4]) of 10.3 µM.

Work on `O=c1cc(CSc2nnc(-c3ccc(F)cc3)o2)occ1O` yielded an IC50 (Mushroom tyrosinase [5]) of 5.3 µM.

`O=C(N[C@@H](Cc1ccccc1)C(=O)OCc1cc(=O)c(O)c[nH]1)OCc1ccccc1` showed an IC50 (Mushroom tyrosinase [4]) of 9 µM.

Work on “Mushroom tyrosinase (Agaricus bisporus) (from UniProt O42713+Q00024+C7FF04+C7FF05)” yielded a kcat (CC(C)(C)c1ccc(O)c(O)c1 [6]) of 642 s⁻¹, a kcat [7] of 29 s⁻¹ and a kcat (Cc1ccc(O)c(O)c1 [8]) of 842 s⁻¹. It also gave a kcat (NCCc1ccc(O)c(O)c1 [9]) of 475 s⁻¹, a kcat [10] of 107 s⁻¹ and a kcat [11] of 7.9 s⁻¹. For the same compound, the kcat [12] was 108 s⁻¹, the kcat [13] was 68 s⁻¹ and the kcat [14] was 403 s⁻¹. It also gave a kcat (O=C(O)Cc1ccc(O)c(O)c1) of 632 s⁻¹, a kcat [15] of 6.2 s⁻¹ and a kcat (Oc1ccccc1O [16]) of 874 s⁻¹. The Km (CC(C)(C)c1ccc(O)c(O)c1 [17]) was 2.8 µM, the Km [18] was 7100 µM and the Km (COc1ccc(O)cc1 [19]) was 80 µM. For the same compound, the Km (Cc1ccc(O)c(O)c1 [20]) was 100 µM, the Km (NCCc1ccc(O)c(O)c1 [21]) was 720 µM and the Km (NCCc1ccc(O)cc1 [22]) was 0.51 µM. For the same compound, the Km [23] was 800 µM, the Km [24] was 0.21 µM and the Km [25] was 2.5 µM. The Km (O=C(O)Cc1ccc(O)cc1 [26]) was 1910 µM, the Km [27] was 0.12 µM and the Km [28] was 3000 µM. It also gave a Km (Oc1ccc(OC2CCCCO2)cc1 [29]) of 0.033 µM, a Km (Oc1ccccc1O [30]) of 0.16 µM and a Km (Oc1ccccc1 [31]) of 0.7 µM. The kcat (COc1ccc(O)cc1 [32]) was 184 s⁻¹, the kcat (NCCc1ccc(O)cc1 [33]) was 26 s⁻¹ and the kcat [34] was 8.7 s⁻¹. The kcat (O=C(O)Cc1ccc(O)cc1 [35]) was 44 s⁻¹, the kcat (Oc1ccccc1 [36]) was 13 s⁻¹ and the kcat [37] was 2.3 s⁻¹. It also gave a kcat [38] of 3.8 s⁻¹, a kcat [39] of 69 s⁻¹ and a kcat (Oc1ccc(OC2CCCCO2)cc1 [40]) of 1.95 s⁻¹.

`O=C1/C(=C/c2ccc(=O)n(O)c2)Oc2cc(O)cc(O)c21` gave a Ki (Mushroom tyrosinase [3]) of 1.2 µM.

With `O=c1cc(CSc2nnc(-c3ccccc3)n2NCc2ccc(O)cc2O)occ1O` the IC50 (Mushroom tyrosinase [5]) was 1.4 µM.

In the case of `NCCn1ccc(=O)c(O)c1`, the Ki [2] is reported as 14 µM.

`O=Cc1ccc(OCc2cc(=O)c(O)co2)cc1F` gave an IC50 (Mushroom tyrosinase [4]) of 5.3 µM.

Work on `CCCCCCCCn1cc(O)c(=O)cc1COC(=O)[C@@H](N)Cc1ccccc1` yielded an IC50 (Mushroom tyrosinase [4]) of 4 µM.

For `Cc1c(C)c2c(c(C)c1O)CCC(C)(C(=O)OCc1cc(=O)c(O)co1)O2` (stereo not given), the IC50 (Mushroom tyrosinase [4]) was 5.4 µM.

With `NC(=S)N/N=C\c1ccc(=O)n(O)c1` the Ki (Tyrosinase) was 47 µM, the IC50 (Mushroom tyrosinase [1]) was 0.56 µM and the Ki (Mushroom tyrosinase [3]) was 0.56 µM. The Ki [41] was 2 µM.
